From PMC6080931 (The Journal of Cell Biology, 2018) come the findings set out here.

The target of assay [1] is Atg2 (untagged, overproduced, of the purified Atg2–Atg18 complexes) (S. cerevisiae) (UniProt P53855). The assay can be described thus: liposome flotation assay.
The target in assay [2] is Atg2 (untagged, overproduced, of the purified Atg2–Atg18 complexes) (S. cerevisiae, UniProt P53855 1-1592). The experiment in a line: liposome flotation assay.

A value given as a limit tells only on which side of the number the result lay.

Sequence of Atg2 (untagged, overproduced, of the purified Atg2–Atg18 complexes) (S. cerevisiae) (P53855 whole entry, one chain of several): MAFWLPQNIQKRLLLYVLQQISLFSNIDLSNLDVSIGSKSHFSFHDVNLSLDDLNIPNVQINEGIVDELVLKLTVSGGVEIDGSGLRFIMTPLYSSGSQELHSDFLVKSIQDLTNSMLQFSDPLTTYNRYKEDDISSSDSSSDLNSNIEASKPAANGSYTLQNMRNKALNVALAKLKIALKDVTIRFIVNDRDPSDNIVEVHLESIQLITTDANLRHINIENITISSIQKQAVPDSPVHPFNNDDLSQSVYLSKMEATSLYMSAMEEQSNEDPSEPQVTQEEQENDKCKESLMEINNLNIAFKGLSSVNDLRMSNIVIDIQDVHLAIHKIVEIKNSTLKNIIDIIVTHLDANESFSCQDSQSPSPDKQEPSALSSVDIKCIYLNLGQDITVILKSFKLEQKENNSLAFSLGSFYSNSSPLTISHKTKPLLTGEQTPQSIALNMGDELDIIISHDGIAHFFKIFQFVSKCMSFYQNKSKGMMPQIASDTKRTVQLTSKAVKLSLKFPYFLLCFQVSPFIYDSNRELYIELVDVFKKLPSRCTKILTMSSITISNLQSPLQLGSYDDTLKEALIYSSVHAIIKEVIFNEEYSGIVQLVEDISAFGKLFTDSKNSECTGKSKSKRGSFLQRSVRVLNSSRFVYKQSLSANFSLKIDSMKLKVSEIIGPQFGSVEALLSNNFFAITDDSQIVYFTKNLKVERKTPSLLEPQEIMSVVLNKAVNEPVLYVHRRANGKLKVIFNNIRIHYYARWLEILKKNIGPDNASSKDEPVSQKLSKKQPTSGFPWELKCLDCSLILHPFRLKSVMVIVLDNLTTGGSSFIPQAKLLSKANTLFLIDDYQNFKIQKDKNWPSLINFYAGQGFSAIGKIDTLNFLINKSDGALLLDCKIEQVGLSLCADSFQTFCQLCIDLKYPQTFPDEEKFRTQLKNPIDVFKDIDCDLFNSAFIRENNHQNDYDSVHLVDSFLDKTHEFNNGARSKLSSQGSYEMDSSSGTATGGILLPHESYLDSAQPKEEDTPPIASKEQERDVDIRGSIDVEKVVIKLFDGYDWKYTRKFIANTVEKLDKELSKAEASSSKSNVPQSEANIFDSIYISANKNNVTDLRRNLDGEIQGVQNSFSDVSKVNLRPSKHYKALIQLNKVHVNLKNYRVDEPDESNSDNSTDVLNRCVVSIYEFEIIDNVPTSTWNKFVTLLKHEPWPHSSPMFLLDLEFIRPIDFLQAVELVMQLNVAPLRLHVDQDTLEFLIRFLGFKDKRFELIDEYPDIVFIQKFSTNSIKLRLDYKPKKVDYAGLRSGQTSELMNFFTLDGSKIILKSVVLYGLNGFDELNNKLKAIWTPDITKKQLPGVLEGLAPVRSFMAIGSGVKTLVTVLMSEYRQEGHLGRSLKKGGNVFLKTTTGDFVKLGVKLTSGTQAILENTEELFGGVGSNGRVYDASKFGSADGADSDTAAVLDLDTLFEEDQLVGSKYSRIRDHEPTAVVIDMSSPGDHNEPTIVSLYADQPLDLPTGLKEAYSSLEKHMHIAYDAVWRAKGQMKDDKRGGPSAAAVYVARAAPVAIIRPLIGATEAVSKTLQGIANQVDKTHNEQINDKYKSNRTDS
Sequence of Atg2 (untagged, overproduced, of the purified Atg2–Atg18 complexes) (P53855 whole entry, one chain of several): as above

In assay [1], “Atg18^FAAG-TAP (overproduced, mutant unable to bind PtdIns3P) (from UniProt P43601 1-500) (natural protein)” showed a percent of Atg18^FAAG on liposomes with Atg9 of less than 58%.

B1: Atg18-TAP (overproduced, of the purified Atg2–Atg18 complexes) (natural protein, S. cerevisiae, UniProt P43601 1-500, looked up)
chain: MSDSSPTINFINFNQTGTCISLGTSKGFKIFNCEPFGKFYSEDSGGYAIVEMLFSTSLLALVGIGDQPALSPRRLRIINTKKHSIICEVTFPTSILSVKMNKSRLVVLLQEQIYIYDINTMRLLHTIETNPNPRGLMAMSPSVANSYLVYPSPPKVINSEIKAHATTNNITLSVGGNTETSFKRDQQDAGHSDISDLDQYSSFTKRDDADPTSSNGGNSSIIKNGDVIVFNLETLQPTMVIEAHKGEIAAMAISFDGTLMATASDKGTIIRVFDIETGDKIYQFRRGTYATRIYSISFSEDSQYLAVTGSSKTVHIFKLGHSMSNNKLDSDDSNMEEAAADDSSLDTTSIDALSDEENPTRLAREPYVDASRKTMGRMIRYSSQKLSRRAARTLGQIFPIKVTSLLESSRHFASLKLPVETNSHVMTISSIGSPIDIDTSEYPELFETGNSASTESYHEPVMKMVPIRVVSSDGYLYNFVMDPERGGDCLILSQYSILMD
As to B1, the “stoichiometry N” value in assay [2] is approximately 1 ratio.
